Test [1] concerns the target T1, mDia2N (mDia2 residues 150-533) (UniProt Q9Z207 150-533).
T1 sequence (looked up): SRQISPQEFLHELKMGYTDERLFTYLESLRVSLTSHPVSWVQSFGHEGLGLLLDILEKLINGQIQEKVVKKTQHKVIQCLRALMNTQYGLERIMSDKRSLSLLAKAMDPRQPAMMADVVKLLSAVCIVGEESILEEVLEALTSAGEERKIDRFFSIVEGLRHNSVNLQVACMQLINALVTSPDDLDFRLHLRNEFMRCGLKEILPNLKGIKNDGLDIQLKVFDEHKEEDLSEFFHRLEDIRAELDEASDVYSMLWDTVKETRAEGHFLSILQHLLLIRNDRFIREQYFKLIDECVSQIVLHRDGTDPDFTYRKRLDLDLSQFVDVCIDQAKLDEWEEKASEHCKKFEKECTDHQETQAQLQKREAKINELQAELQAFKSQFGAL
Kind of test: SPR. For orientation: SPR reads the build-up and loss of mass on a sensor chip optically.

In test [2] the target is T2, mDia3N (mDia3 residues 166-542) (UniProt O70566 166-542).
T2 sequence (looked up): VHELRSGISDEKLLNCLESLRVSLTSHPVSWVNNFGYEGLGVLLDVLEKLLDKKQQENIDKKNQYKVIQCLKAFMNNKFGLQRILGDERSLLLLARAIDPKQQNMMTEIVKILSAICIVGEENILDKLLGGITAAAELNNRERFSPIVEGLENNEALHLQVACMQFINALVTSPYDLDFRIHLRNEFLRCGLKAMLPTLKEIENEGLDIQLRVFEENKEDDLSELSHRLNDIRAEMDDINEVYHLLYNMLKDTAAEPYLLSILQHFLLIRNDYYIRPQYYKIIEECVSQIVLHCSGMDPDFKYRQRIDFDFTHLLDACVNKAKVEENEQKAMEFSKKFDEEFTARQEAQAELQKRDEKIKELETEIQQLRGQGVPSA
Kind of test: SPR.

Kd data for one molecule are collected here from PMC2938385 (Molecular Biology of the Cell, 2010).

B1: GST-anillin (1-91) (domain or fragment, human, UniProt Q9NQW6-2 1-91, looked up)
chain: MDPFTEKLLERTRARRENLQRKMAERPTAAPRSMTHAKRARQPLSEASNQQPLSGGEEKSCTKPSPSKKRCSDNTEVEVSNLENKQPVEST
B1: the dissociation constant Kd in test [1] is 236 nM; in test [2], 1020 nM.

As usually defined, the Kd is a measure of binding affinity in units of concentration.
